Reference: publication PMC6197867, “Isolation and purification of recombinant immunoglobulin light chain variable domains from the periplasmic space of Escherichia coli” (PLoS ONE, 2018)

Target: the molecule itself
Test: SEC-MALS; 1.0 mg/mL protein on HiLoad 16/60 Superdex 75 in 10 mM Tris-HCl pH 7.5, 150 mM NaCl, 0.75 mL/min, 25 °C; monomer to dimer

B1: SMA immunoglobulin light chain variable domain (kappa 4), recombinant (domain or fragment)
VL: not shown
notes: 114 amino acid kappa 4 light chain variable domain SMA, first extracted as amyloid fibrils from a patient with AL amyloidosis; The C-terminal Lys-His8 of pOPINO was removed by a premature stop codon; the ompA leader is cleaved; also called VL SMA; source: E. coli C41 (DE3), periplasmic expression, osmotic shock, purified (isoelectric precipitation, cation exchange, SEC); not shown: ompA leader …
stoichiometry N: 2

B2: LEN immunoglobulin light chain variable domain (kappa 4), recombinant (domain or fragment)
VL: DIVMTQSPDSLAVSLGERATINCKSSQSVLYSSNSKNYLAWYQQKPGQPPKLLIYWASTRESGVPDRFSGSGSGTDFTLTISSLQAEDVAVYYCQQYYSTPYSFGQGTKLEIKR
notes: 114 amino acid kappa 4 light chain variable domain of the Bence Jones protein LEN, from a patient with multiple myeloma; The C-terminal Lys-His8 of pOPINO was removed by a premature stop codon; removal of the ompA leader was confirmed by mass spectrometry, so the protein has no added residues; also called VL LEN; source: E. coli C41 (DE3), periplasmic expression, osmotic shock, purified …
stoichiometry N: 2
